Results: paper PMC6423188, “HYNIC and DOMA conjugated radiolabeled bombesin analogs as receptor-targeted probes for scintigraphic detection of breast tumor” (EJNMMI Research, 2019)

What was measured:
[1] = in vitro; assay type: in vitro ADME; conditions: rat
Method: An aliquot (100 μL) of ^99mTc-BN1/^99mTc-BN2/^99mTc-BN3/^99mTc-BN4/^99mTc-BNS was added to 1 mL of freshly collected rat serum in centrifuge tube. The mixture was then incubated at 37 °C for 1 h; the serum protein was precipitated by adding 1 mL trichloroacetic acid (10%, V/V). The supernatant and precipitate were separated by centrifugation at 3000 rpm for 5 min. Radioactivities of both the phases were measured separately. The above experimental procedure was repeated three times. The percentage of protein binding was determined as: Plasma protein binding % = (precipitate counts (CPM) / [precipitate counts (CPM) + plasma counts (CPM)]) × 100%.

[2] = physchem; assay type: physicochemical; conditions: pH 7.4
Method: Lipophilicity of the HPLC-purified radiopeptide analogs was determined through octanol/water partition coefficients, determined at pH 7.4 by measuring the distribution of the HPLC purified radiolabeled peptides in 1-octanol and PBS. Then, 50 μL HPLC purified ^99mTc-BN1/^99mTc-BN2/^99mTc-BN3/^99mTc-BN4/^99mTc-BNS with 100 μCi of radiolabeled compound in PBS was added to a to a centrifuge tube containing 1 mL n-octanol and 1 mL PBS (0.025 M, pH 7.4). The tube was vortexed at room temperature for 2 min and they are centrifuged at 5000 rpm for 5 min to ensure complete separation of layers. Further, 100 μL of each phase was transferred into a separate pre-weighed vial and measured in the well γ-counter. The ratio of octanol layer counts to aqueous layer counts was expressed as the distribution coefficient (D, the appropriate descriptor for ionizable compounds) and logD was used for determination of lipophilicity. Counts per unit weight of the sample were calculated, and logD value as calculated as follows:
log10D = log10 [(cpm in octanol – cpm in background) / (cpm in buffer – cpm in background)]

[3] = system: MDA-MB-231 tumor-bearing mice; test: In vivo biodistribution; set-up: species or system mouse; conditions: mean ± SD, n = 3; for Tumor uptake: MDA-MB-231 tumor
Method: All animal experiments were done according to the CSIR-IICB Animal Ethics Committee’s rules and regulation. Forty-eight hours before tumor cell implantation, an immunosuppressive drug (cyclosporine-A) was given intraperitoneal (i.p) at a concentration of 30 mg/kg/day. After that, MDA-MB-231 cells (5 × 10^6) 0.2 mL were implanted subcutaneously into the left flanks of the hind leg of BALB/c mice. Thereafter, the same dose of cyclosporine was given i.p. daily up to 2 weeks. Two weeks after inoculation of the tumor cells, when tumors reached ~ 0.5 cm in mean diameter, the tumor-bearing mice were used for biodistribution and imaging studies. Animals were monitored daily and their weights were recorded. Control group of mice received only 0.9 wt% saline. After cell implantation, the growth rate of the breast tumor followed a satisfactory pattern of spheroid shape and tumors are palpable within 2 to 4 weeks. MDA-MB-231 cell implanted mice tumor models were used for biodistribution and planar imaging studies of these radiolabeled new bombesin analogs.
In tissue biodistribution studies, tumor-bearing animals were divided into four groups and well hydrated for 1 h by intraperitoneal administration of saline (0.9%, 2 mL). Three animals per groups were used for biodistribution studies. After that, the radiolabeled new bombesin analogs (^99mTc-BN) were injected intravenously in each animal of each group consequently through the tail vein [24–27]. After 5, 30, 60, and 120 min intravenous administrations of radiolabeled analogs, the animals were sacrificed; blood, heart, lung, liver, kidney, stomach, intestine, spleen, pancreas, brain, muscle, and tumor were excised, weighed, and counted for radioactivity. The organ uptake was calculated as a percentage of the injected activity per gram of wet tissue (%IA/g). In order to evaluate whether binding of bombesin analogs to MDA-MB-231 cells in vivo is specific; blocking studies with ^99mTc-labeled bombesin analogs in tumor-bearing mice were carried out. Groups of three animals were injected 0.03 nmol of ^99mTc-labeled BN analogs (2 MBq) with 25 nmol of non-radiolabeled BN peptide. After 60 min and 120 min, mice were sacrificed and the organs were collected. Each organ was weighed and counted in a gamma counter along with activity standard and percentage of injected activity per gram (%IA/g) of tissue was calculated for each type of tissues. Counts were corrected for background radiation and physical decay of the radioactivity. The uptake was expressed in the percentage of injected activity per gram of each organ (%IA/g). Data were analyzed statistically by the t test, with the level of significance set at P < 0.05.

[4] = 60 min p.i., blocked with excess non-radiolabeled BN peptide

^99mTc-HYNIC-Asp-[Phe^13Nle^14]BN(7-14)NH2 [99mTc-BN1]
Percentage of plasma protein binding [1]: 45.00% | logD [2]: − 1.85 ± 0.05 | Tumor uptake ([3]; 5 min p.i., i.v.): 0.78 ± 0.03 %IA/g | Blood uptake ([3]; 5 min p.i., i.v.): 1.32 ± 0.07 %IA/g | Heart uptake ([3]; 5 min p.i., i.v.): 1.02 ± 0.05 %IA/g | Intestine uptake ([3]; 5 min p.i., i.v.): 1.06 ± 0.05 %IA/g | Kidney uptake ([3]; 5 min p.i., i.v.): 2.12 ± 0.10 %IA/g | Liver uptake ([3]; 5 min p.i., i.v.): 0.85 ± 0.04 %IA/g | Lung uptake ([3]; 5 min p.i., i.v.): 0.95 ± 0.04 %IA/g | Muscle uptake ([3]; 5 min p.i., i.v.): 0.22 ± 0.02 %IA/g | Pancreas uptake ([3]; 5 min p.i., i.v.): 2.58 ± 0.12 %IA/g | Spleen uptake ([3]; 5 min p.i., i.v.): 0.94 ± 0.04 %IA/g | Stomach uptake ([3]; 5 min p.i., i.v.): 0.42 ± 0.02 %IA/g | Urine + urinary bladder uptake ([3]; 5 min p.i., i.v.): 0.81 ± 0.04 %IA/g | Tumor uptake ([3]; 30 min p.i., i.v.): 2.51 ± 0.12 %IA/g | Blood uptake ([3]; 30 min p.i., i.v.): 0.89 ± 0.04 %IA/g | Heart uptake ([3]; 30 min p.i., i.v.): 0.81 ± 0.04 %IA/g | Intestine uptake ([3]; 30 min p.i., i.v.): 1.36 ± 0.06 %IA/g | Kidney uptake ([3]; 30 min p.i., i.v.): 4.12 ± 0.20 %IA/g | Liver uptake ([3]; 30 min p.i., i.v.): 0.69 ± 0.03 %IA/g | Lung uptake ([3]; 30 min p.i., i.v.): 0.77 ± 0.03 %IA/g | Muscle uptake ([3]; 30 min p.i., i.v.): 0.27 ± 0.01 %IA/g | Pancreas uptake ([3]; 30 min p.i., i.v.): 1.79 ± 0.08 %IA/g | Spleen uptake ([3]; 30 min p.i., i.v.): 0.51 ± 0.02 %IA/g | Stomach uptake ([3]; 30 min p.i., i.v.): 0.85 ± 0.04 %IA/g | Urine + urinary bladder uptake ([3]; 30 min p.i., i.v.): 2.85 ± 0.01 %IA/g | Tumor uptake [3, 4]: 1.20 ± 0.03 %IA/g | Blood uptake [3, 4]: 0.34 ± 0.01 %IA/g | Heart uptake [3, 4]: 0.44 ± 0.01 %IA/g | Intestine uptake [3, 4]: 1.44 ± 0.05 %IA/g | Kidney uptake [3, 4]: 3.10 ± 0.02 %IA/g | Liver uptake [3, 4]: 0.55 ± 0.03 %IA/g | Lung uptake [3, 4]: 0.57 ± 0.02 %IA/g | Muscle uptake [3, 4]: 0.16 ± 0.02 %IA/g | Pancreas uptake [3, 4]: 0.91 ± 0.04 %IA/g | Spleen uptake [3, 4]: 0.35 ± 0.01 %IA/g | Stomach uptake [3, 4]: 0.40 ± 0.02 %IA/g | Urine + urinary bladder uptake [3, 4]: 3.56 ± 0.02 %IA/g | Tumor uptake ([3]; 60 min p.i., i.v.): 1.85 ± 0.09 %IA/g | Blood uptake ([3]; 60 min p.i., i.v.): 0.32 ± 0.01 %IA/g | Heart uptake ([3]; 60 min p.i., i.v.): 0.47 ± 0.02 %IA/g | Intestine uptake ([3]; 60 min p.i., i.v.): 1.70 ± 0.08 %IA/g | Kidney uptake ([3]; 60 min p.i., i.v.): 3.15 ± 0.15 %IA/g | Liver uptake ([3]; 60 min p.i., i.v.): 0.56 ± 0.02 %IA/g | Lung uptake ([3]; 60 min p.i., i.v.): 0.56 ± 0.02 %IA/g | Muscle uptake ([3]; 60 min p.i., i.v.): 0.14 ± 0.01 %IA/g | Pancreas uptake ([3]; 60 min p.i., i.v.): 1.11 ± 0.05 %IA/g | Spleen uptake ([3]; 60 min p.i., i.v.): 0.32 ± 0.01 %IA/g | Stomach uptake ([3]; 60 min p.i., i.v.): 0.56 ± 0.02 %IA/g | Urine + urinary bladder uptake ([3]; 60 min p.i., i.v.): 3.50 ± 0.15 %IA/g | Tumor uptake ([3]; 120 min p.i., i.v.): 1.56 ± 0.07 %IA/g | Blood uptake ([3]; 120 min p.i., i.v.): 0.05 ± 0.01 %IA/g | Heart uptake ([3]; 120 min p.i., i.v.): 0.17 ± 0.01 %IA/g | Intestine uptake ([3]; 120 min p.i., i.v.): 1.10 ± 0.05 %IA/g | Kidney uptake ([3]; 120 min p.i., i.v.): 1.56 ± 0.07 %IA/g | Liver uptake ([3]; 120 min p.i., i.v.): 0.32 ± 0.01 %IA/g | Lung uptake ([3]; 120 min p.i., i.v.): 0.32 ± 0.01 %IA/g | Muscle uptake ([3]; 120 min p.i., i.v.): 0.09 ± 0.02 %IA/g | Pancreas uptake ([3]; 120 min p.i., i.v.): 0.69 ± 0.03 %IA/g | Spleen uptake ([3]; 120 min p.i., i.v.): 0.26 ± 0.03 %IA/g | Stomach uptake ([3]; 120 min p.i., i.v.): 0.35 ± 0.01 %IA/g | Urine + urinary bladder uptake ([3]; 120 min p.i., i.v.): 4.79 ± 0.12 %IA/g
